Measured values reported in PMC10499838 (Nature Communications, 2023).

Biological target: RVFV Gn, WT sequence, transiently expressed in Expi293F cells (Rift Valley fever virus, GenBank …)
Assay: flow cytometry on cells
Details: one partner purified

B1: RVFV-268 IgG1 (antibody, V domains shown)
VH: QVHLVESGGGVVQPGKSLRLSCAASGFIFNHFGIHWVRQSPGKGLEWVAVIWYDGSKKYFADSVKGRFSISRDNSQNTVYLQMNSLRTEDTAVYYCARERWSGHSYLDYWGHGALVTVSS
VL: SNVLTQPPSVSVAPGQTARISCGGNNLESKYVHWYQQKPGQAPVLVVYEDSGRPSGIPERFSGSNSGGTATLTISRVEAGDEADYYCQEWDTSSDYPVFGGGTKVTVL
notes: copies: 2 + 2
binding result: binds
